Target: T1, purified human C3b (human, UniProt P01024 23-667; P01024 749-1663)
T1 construct: C3b is the two-chain cleavage product of C3; source: purified human C3b
Assay: ELISA; C3b (5 ug/ml) or C3d (5 ug/ml) coated on wells; purified biotinylated human FH (6 ug/ml) preincubated in solution with different amounts of total IgG from patient serum (kAb) or NHS
Settings: both partners purified

T1 sequence (P01024 23-667, chain 1 of 2): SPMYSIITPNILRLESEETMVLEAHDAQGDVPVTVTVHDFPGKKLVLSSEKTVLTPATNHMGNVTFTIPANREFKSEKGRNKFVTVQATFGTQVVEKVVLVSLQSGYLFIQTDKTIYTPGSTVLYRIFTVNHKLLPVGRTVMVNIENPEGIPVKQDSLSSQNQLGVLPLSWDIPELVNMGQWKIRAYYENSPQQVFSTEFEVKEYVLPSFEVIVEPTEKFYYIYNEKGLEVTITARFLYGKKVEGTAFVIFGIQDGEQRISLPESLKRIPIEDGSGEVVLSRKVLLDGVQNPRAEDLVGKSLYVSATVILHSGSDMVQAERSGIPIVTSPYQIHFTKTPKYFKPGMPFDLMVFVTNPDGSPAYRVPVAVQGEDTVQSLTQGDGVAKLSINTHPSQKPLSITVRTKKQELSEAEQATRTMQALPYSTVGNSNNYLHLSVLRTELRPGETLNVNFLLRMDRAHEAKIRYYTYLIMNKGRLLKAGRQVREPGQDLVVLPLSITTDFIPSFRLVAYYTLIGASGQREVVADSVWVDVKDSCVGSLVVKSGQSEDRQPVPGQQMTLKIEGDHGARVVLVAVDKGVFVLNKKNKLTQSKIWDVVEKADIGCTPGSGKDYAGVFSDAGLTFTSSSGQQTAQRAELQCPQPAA
T1 sequence (P01024 749-1663, chain 2 of 2): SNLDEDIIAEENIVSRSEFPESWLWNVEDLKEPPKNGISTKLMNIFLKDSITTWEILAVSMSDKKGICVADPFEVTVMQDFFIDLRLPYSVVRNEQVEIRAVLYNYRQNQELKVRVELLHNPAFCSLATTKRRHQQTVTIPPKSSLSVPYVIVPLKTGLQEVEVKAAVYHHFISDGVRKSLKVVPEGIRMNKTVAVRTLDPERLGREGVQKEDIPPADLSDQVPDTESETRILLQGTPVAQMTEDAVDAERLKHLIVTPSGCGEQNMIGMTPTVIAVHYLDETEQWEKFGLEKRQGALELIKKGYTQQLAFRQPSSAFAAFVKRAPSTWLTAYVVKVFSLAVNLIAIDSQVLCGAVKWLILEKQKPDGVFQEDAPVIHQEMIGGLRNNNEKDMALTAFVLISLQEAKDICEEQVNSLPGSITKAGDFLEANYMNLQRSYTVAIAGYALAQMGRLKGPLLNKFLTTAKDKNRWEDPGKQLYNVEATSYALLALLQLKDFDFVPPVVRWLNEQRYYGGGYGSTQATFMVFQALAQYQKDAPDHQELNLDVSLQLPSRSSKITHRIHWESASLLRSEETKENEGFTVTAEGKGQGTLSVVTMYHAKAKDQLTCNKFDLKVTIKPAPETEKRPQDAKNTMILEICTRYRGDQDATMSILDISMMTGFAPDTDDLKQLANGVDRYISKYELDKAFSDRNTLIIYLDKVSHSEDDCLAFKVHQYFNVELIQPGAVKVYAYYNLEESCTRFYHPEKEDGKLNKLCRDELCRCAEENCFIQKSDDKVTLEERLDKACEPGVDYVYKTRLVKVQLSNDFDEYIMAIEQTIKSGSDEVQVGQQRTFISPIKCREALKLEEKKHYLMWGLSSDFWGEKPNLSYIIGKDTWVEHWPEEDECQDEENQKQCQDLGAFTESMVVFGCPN

binding result: binds
B1: purified biotinylated human factor H (natural protein, UniProt P08603 19-1231, looked up)
chain: EDCNELPPRRNTEILTGSWSDQTYPEGTQAIYKCRPGYRSLGNVIMVCRKGEWVALNPLRKCQKRPCGHPGDTPFGTFTLTGGNVFEYGVKAVYTCNEGYQLLGEINYRECDTDGWTNDIPICEVVKCLPVTAPENGKIVSSAMEPDREYHFGQAVRFVCNSGYKIEGDEEMHCSDDGFWSKEKPKCVEISCKSPDVINGSPISQKIIYKENERFQYKCNMGYEYSERGDAVCTESGWRPLPSCEEKSCDNPYIPNGDYSPLRIKHRTGDEITYQCRNGFYPATRGNTAKCTSTGWIPAPRCTLKPCDYPDIKHGGLYHENMRRPYFPVAVGKYYSYYCDEHFETPSGSYWDHIHCTQDGWSPAVPCLRKCYFPYLENGYNQNYGRKFVQGKSIDVACHPGYALPKAQTTVTCMENGWSPTPRCIRVKTCSKSSIDIENGFISESQYTYALKEKAKYQCKLGYVTADGETSGSITCGKDGWSAQPTCIKSCDIPVFMNARTKNDFTWFKLNDTLDYECHDGYESNTGSTTGSIVCGYNGWSDLPICYERECELPKIDVHLVPDRKKDQYKVGEVLKFSCKPGFTIVGPNSVQCYHFGLSPDLPICKEQVQSCGPPPELLNGNVKEKTKEEYGHSEVVEYYCNPRFLMKGPNKIQCVDGEWTTLPVCIVEESTCGDIPELEHGWAQLSSPPYYYGDSVEFNCSESFTMIGHRSITCIHGVWTQLPQCVAIDKLKKCKSSNLIILEEHLKNKKEFDHNSNIRYRCRGKEGWIHTVCINGRWDPEVNCSMAQIQLCPPPPQIPNSHNMTTTLNYRDGEKVSVLCQENYLIQEGEEITCKDGRWQSIPLCVEKIPCSQPPQIEHGTINSSRSSQESYAHGTKLSYTCEGGFRISEENETTCYMGKWSSPPQCEGLPCKSPPEISHGVVAHMSDSYQYGEEVTYKCFEGFGIDGPAIAKCLGEKWSHPPSCIKTDCLSLPSFENAIPMGEKKDVYKAGEQVTYTCATYYKMDGASNVTCINSRWTGRPTCRDTSCVNPPTVQNAYIVSRQMSKYPSGERVRYQCRSPYEMFGDEEVMCLNGNWTEPPQCKDSTGKCGPPPPIDNGDITSFPLSVYAPASSVEYQCQNLYQLEGNKRITCRNGQWSEPPKCLHPCVISREIMENYNIALRWTAKQKLYSRTGESVEFVCKRGYRLSSRSHTLRTTCWDGKLEYPTCAKR
modifications: biotin (biotinylated; sites not stated)
notes: complement factor H, human, 155 kDa serum protein of 20 CCP domains; purified human protein; also called FH; source: purified human FH, biotinylated
